Drawing on US20240109955A1, this text covers IC50, pseudovirus neutralization and IC80, pseudovirus neutralization for 5 molecules.

What all share (experiment): cell-based or functional assay
Assay [1] deals with SARS-CoV-2 spike (S) protein, Omicron sublineage BQ.1 (SARS-CoV-2).
Assay [2] addresses SARS-CoV-2 spike (S) protein, Omicron sublineage XBB (SARS-CoV-2).
The target in assay [3] is SARS-CoV-2 spike (S) protein, Omicron sublineage BA.2.75.2 (SARS-CoV-2).
Assay [4] concerns the target SARS-CoV-2 spike (S) protein, Omicron sublineage BA.4/5 (SARS-CoV-2).
Assay [5] has as its target SARS-CoV-2 spike (S) protein, Omicron sublineage BQ.1.1 (SARS-CoV-2).

B1: E76-B8 (antibody, V domains shown)
VH: EVQLVESGGALIQPGGSLRLSCAASGIIVSANYMSWVRQAPGKGLEWVSVIYSGGSTFYADSVKGRFTISRDNSKNTLYLEMNSLRAEDTAVYYCARDAPILGVSDWGQGTLVTVSS
VL: EIVMTQSPAILSVSPGERATLSCRASQSVAINLAWYQQKPGQAPRLLIYAASSRATGIPGRFSGSGSETNFTLTISSLQSGDFAVYYCQQYITWPPSYTFGQGTKLEIK
Regarding B1, the IC50, pseudovirus neutralization turned out to be 0.015 µg/mL in assay [1]; 0.0134 µg/mL in assay [2]; 0.0122 µg/mL in assay [3]; 0.00697 µg/mL in assay [4]; 0.00457 µg/mL in assay [5]. In addition, the IC80, pseudovirus neutralization in assay [1] amounted to 0.0496 µg/mL; in assay [2] it was 0.0472 µg/mL; in assay [3] it was 0.0274 µg/mL; in assay [4], 0.0148 µg/mL; in assay [5] it was 0.0217 µg/mL.

B2: MX1057 (trispecific antibody)
chain 1: QTVVTQEPSFSVSPGGTVTLTCGLSSGSVSTAYFPSWYQQTPGQAPRTLIYGTNTRSSGVPDRFSGSILGNKAALTITGAQADDESDYYCVLYMGRGIVVFGGGTKLTVLGGSSGDTVMTQSPLSLPVTPGEPASISCRSSQSLLNSNGYNYLDWYVQKPGQSPQLLIYLGSNRASGVPDRFSGSGSGTDFTLKISRVEAEDVGVYYCMQPLQTPLFTFGPGTKVEIKGGGGSGGSGSGGGGSASGSGQVTLRESGPALVKPTQTLTLTCTFSGFSLSTRGVCVSWIRQPPGKALEWLAFIDWDDDKYYNTSLKTRLTISKDTSKNQVVLTMTNVHPVDTATYYCARISSHHGSSWCTTFDYWGQGALVTVSAGGSSGQVQLVESGGGVVQPGRSLRLSCAASGFTLSSYGMHWVRQAPGKGLEWVAVISYDGSNKYYVDSVKGRFTISRDNSKNTLYLQMNSLRAEDTAVYYCRWAYWELLPDYYYGMDVWGQGTTVTVSSASGGSGDKTHTCPPCPAPELLGGPSVFLFPPKPKDTLMISRTPEVTCVVVDVSHEDPEVKFNWYVDGVEVHNAKTKPREEQYNSYVVSVLTVLHQDWLNGKEYKCKVSNKALPAPIEKTISKAKGQPREPQVYTLPPCRDELTKNQVSLWCLVKGFYPSDIAVEWESNGQPENNYKTTPPVLDSDGSFFKKLTVDKSRWQQGNVFSCSVLHEALHSHYTQKSLSLSPG
chain 2: EIVMTQSPAILSVSPGERATLSCRASQSVAINLAWYQQKPGQAPRLLIYAASSRATGIPGRFSGSGSETNFTLTISSLQSGDFAVYYCQQYITWPPSYTFGQGTKLEIKGGSSGDTVMTQSPLSLPVTPGEPASISCRSSQSLLNSNGYNYLDWYVQKPGQSPQLLIYLGSNRASGVPDRFSGSGSGTDFTLKISRVEAEDVGVYYCMQPLQTPLFTFGPGTKVEIKGGGGSGGSGSGGGGSASGSGQVTLRESGPALVKPTQTLTLTCTFSGFSLSTRGVCVSWIRQPPGKALEWLAFIDWDDDKYYNTSLKTRLTISKDTSKNQVVLTMTNVHPVDTATYYCARISSHHGSSWCTTFDYWGQGALVTVSAGGSSGEVQLVESGGALIQPGGSLRLSCAASGIIVSANYMSWVRQAPGKGLEWVSVIYSGGSTFYADSVKGRFTISRDNSKNTLYLEMNSLRAEDTAVYYCARDAPILGVSDWGQGTLVTVSSASGGSGDKTHTCPPCPAPELLGGPSVFLFPPKPKDTLMISRTPEVTCVVVDVSHEDPEVKFNWYVDGVEVHNAKTKPREEQYNSYVVSVLTVLHQDWLNGKEYKCKVSNKALPAPIEKTISKAKGQPREPQVCTLPPSRDELTKNQVSLSCAVKGFYPSDIAVEWESNGQPENNYKTTPPVLDSDGSFFLVSKLTVDKSRWQQGNVFSCSVLHEALHSHYTQKSLSLSPG
On to B2, for which the IC50, pseudovirus neutralization in assay [1] is 0.0083 µg/mL; in assay [2], 0.00639 µg/mL; in assay [3], 0.00127 µg/mL; in assay [4], 0.00404 µg/mL; in assay [5] it was 0.0123 µg/mL. For the same molecule, the IC80, pseudovirus neutralization in assay [1] was 0.0236 µg/mL; in assay [2], 0.0355 µg/mL; in assay [3] it was 0.00379 µg/mL; in assay [4], 0.00742 µg/mL; in assay [5], 0.0561 µg/mL.

B3: MX1058 (trispecific antibody)
chain 1: QTVVTQEPSFSVSPGGTVTLTCGLSSGSVSTAYFPSWYQQTPGQAPRTLIYGTNTRSSGVPDRFSGSILGNKAALTITGAQADDESDYYCVLYMGRGIVVFGGGTKLTVLGGSSGDTVMTQSPLSLPVTPGEPASISCRSSQSLLNSNGYNYLDWYVQKPGQSPQLLIYLGSNRASGVPDRFSGSGSGTDFTLKISRVEAEDVGVYYCMQPLQTPLFTFGPGTKVEIKGGGGSGGSGSGGGGSASGSGQVTLRESGPALVKPTQTLTLTCTFSGFSLSTRGVCVSWIRQPPGKALEWLAFIDWDDDKYYNTSLKTRLTISKDTSKNQVVLTMTNVHPVDTATYYCARISSHHGSSWCTTFDYWGQGALVTVSAGGSSGQVQLVESGGGVVQPGRSLRLSCAASGFTLSSYGMHWVRQAPGKGLEWVAVISYDGSNKYYVDSVKGRFTISRDNSKNTLYLQMNSLRAEDTAVYYCRWAYWELLPDYYYGMDVWGQGTTVTVSSASGGSGDKTHTCPPCPAPELLGGPSVFLFPPKPKDTLMISRTPEVTCVVVDVSHEDPEVKFNWYVDGVEVHNAKTKPREEQYNSYVVSVLTVLHQDWLNGKEYKCKVSNKALPAPIEKTISKAKGQPREPQVYTLPPCRDELTKNQVSLWCLVKGFYPSDIAVEWESNGQPENNYKTTPPVLDSDGSFFKKLTVDKSRWQQGNVFSCSVLHEALHSHYTQKSLSLSPG
chain 2: DTVMTQSPLSLPVTPGEPASISCRSSQSLLNSNGYNYLDWYVQKPGQSPQLLIYLGSNRASGVPDRFSGSGSGTDFTLKISRVEAEDVGVYYCMQPLQTPLFTFGPGTKVEIKGGSSGEIVMTQSPAILSVSPGERATLSCRASQSVAINLAWYQQKPGQAPRLLIYAASSRATGIPGRFSGSGSETNFTLTISSLQSGDFAVYYCQQYITWPPSYTFGQGTKLEIKGGGGSGGSGSGGGGSASGSGEVQLVESGGALIQPGGSLRLSCAASGIIVSANYMSWVRQAPGKGLEWVSVIYSGGSTFYADSVKGRFTISRDNSKNTLYLEMNSLRAEDTAVYYCARDAPILGVSDWGQGTLVTVSSGGSSGQVTLRESGPALVKPTQTLTLTCTFSGFSLSTRGVCVSWIRQPPGKALEWLAFIDWDDDKYYNTSLKTRLTISKDTSKNQVVLTMTNVHPVDTATYYCARISSHHGSSWCTTFDYWGQGALVTVSAASGGSGDKTHTCPPCPAPELLGGPSVFLFPPKPKDTLMISRTPEVTCVVVDVSHEDPEVKFNWYVDGVEVHNAKTKPREEQYNSYVVSVLTVLHQDWLNGKEYKCKVSNKALPAPIEKTISKAKGQPREPQVCTLPPSRDELTKNQVSLSCAVKGFYPSDIAVEWESNGQPENNYKTTPPVLDSDGSFFLVSKLTVDKSRWQQGNVFSCSVLHEALHSHYTQKSLSLSPG
Regarding B3, the IC50, pseudovirus neutralization came out at 0.016 µg/mL in assay [1]; 0.0142 µg/mL in assay [2]; 0.00403 µg/mL in assay [3]; 0.00274 µg/mL in assay [4]; 0.00449 µg/mL in assay [5]. Moreover, the IC80, pseudovirus neutralization in assay [1] worked out at 0.032 µg/mL; in assay [2] it was 0.0318 µg/mL; in assay [3], 0.01 µg/mL; in assay [4], 0.00551 µg/mL; in assay [5], 0.0285 µg/mL.

B4: F769-E12 (antibody, V domains shown)
VH: EVQLVESGGGLIQPGGSLRLSCAASGVIVSYNYMNWVRQAPGKGLEWVSVIYSGGSTFYADSVRGRFTISRDNSKNTLYLQMNSLRAEDTAVYYCARDLGPAGAFDIWGLGTMVTVSS
VL: EIVLTQSPGTLSLSPGETATLSCRASQSFSSDLAWYQQKPGQAPRLLIYGASSRATGIPDRFSGSGSGTDFTLTISRLEPADFAVYYCQQYGSSPPVTFGGGTKVEIK
Take B4: the IC50, pseudovirus neutralization stood at 0.0119 µg/mL in assay [1]; 0.0126 µg/mL in assay [2]; 0.00699 µg/mL in assay [3]; 0.00462 µg/mL in assay [4]; 0.00529 µg/mL in assay [5]. In addition, the IC80, pseudovirus neutralization is 0.0409 µg/mL in assay [1]; 0.0311 µg/mL in assay [2]; 0.0401 µg/mL in assay [3]; 0.00921 µg/mL in assay [4]; 0.0174 µg/mL in assay [5].

B5: F770-E8 (antibody, V domains shown)
VH: QVTLRESGPALVKPTQTLTLTCTFSGFSLSTRGVCVSWIRQPPGKALEWLAFIDWDDDKYYNTSLKTRLTISKDTSKNQVVLTMTNVHPVDTATYYCARISSHHGSSWCTTFDYWGQGALVTVSA
VL: DTVMTQSPLSLPVTPGEPASISCRSSQSLLNSNGYNYLDWYVQKPGQSPQLLIYLGSNRASGVPDRFSGSGSGTDFTLKISRVEAEDVGVYYCMQPLQTPLFTFGPGTKVEIK
For the molecule B5, the IC50, pseudovirus neutralization in assay [1] was determined as 0.124 µg/mL; in assay [2], 0.0615 µg/mL; in assay [3], 0.00172 µg/mL; in assay [4], 0.00013 µg/mL; in assay [5], 0.496 µg/mL. In addition, the IC80, pseudovirus neutralization in assay [1] amounted to 5.19 µg/mL; in assay [2] it was 0.705 µg/mL; in assay [3] it was 0.0059 µg/mL; in assay [4] it was 0.00049 µg/mL; in assay [5], 1.8 µg/mL.
